This data set in a line: self-splicing fitness, log relative to wild type (ln ratio); higher = more splicing; Tetrahymena group I intron in knt gene, E. coli kanamycin selection, DiMSum; sequences stand for … in CUCUCU…GGAGGGAAAAGUUAUCAGGCAUGCACCUGGUAGCUAGUCUUUAAACCAAUAGAUUGCAUCGGUUUAAAAGGCAAGACCGUCAAAUUGCGGGAAAGGGGUCAACAGCCGUUCAGUACCAAGUCUCAGGGGAAACUUUGAGAUGGCCUUGCAAAGGGUAUGGUAAUAAGCUGACGGACAUGGUCCUAACCACGCAGCCAAGUCCUAAGUCAACAGAUCUUCUGUUGAUAUGGAUGCAGUUCACAGACUAAAUGUCGGUCGGGGAAGAUGUAUUCUUCUCAUAAGAUAUAGUCGGACCUCUCCUUAAUGGGAGCUAGCGGAUGAAGUGAUGCAACACUGGAGCCGCUGGGAACUAAUUUGUAUGCGAAAGUAUAUUGAUUAGUUUUGGAGUACUCGUGGUCG
In a few lines: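 The eight P1ex-region nucleotides of an intron in the knt kanamycin-resistance gene on pET-22b(+) were all randomised and the library put into E. coli BL21(DE3). Six replicate transformations were grown overnight at 37°C or 30°C on LB agar with or without 25 μg/mL kanamycin, together with 100 μg/mL carbenicillin, 50 μM IPTG and 0.2% rhamnose. Colonies were pooled and amplicon-sequenced on an Illumina HiSeq 2500. Fitness from DiMSum is the error-weighted combination of wild-type-normalised replicate fold changes, kanamycin over none.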

± gives the uncertainty stated by the source.

As to AACAAGCAAUAUUACGCAUU, the “self-splicing fitness (ln)” value runs as follows: (30 °C) -2.01 ± 0.069; (37 °C) -1.32 ± 0.091.

As to CCUUAGCAAUAUUACGGGCU, the “self-splicing fitness (ln)” value reads like this: (30 °C) -4.07 ± 0.28; (37 °C) -2.87 ± 0.22.

In the case of CGUUAGCAAUAUUACGAUAC, under “37 °C”, the “self-splicing fitness (ln)” value is -2.64 ± 0.44. For the sequence UGCGAGCAAUAUUACGCAUA, the “self-splicing fitness (ln)” value (30 °C) is -3.48 ± 0.43 and the “self-splicing fitness (ln)” value (37 °C) is -3 ± 0.36. Take UGUGAGCAAUAUUACGUGCC: where the note is “30 °C”, the “self-splicing fitness (ln)” value was -2.51 ± 0.3. Same read-out and setting: as for UUGGAGCAAUAUUACGAUAG, the figure is -2.56 ± 0.37; as for CUGGAGCAAUAUUACGGUCA, -2.54 ± 0.47. For GUUGAGCAAUAUUACGCGCG, the “self-splicing fitness (ln)” value runs as follows: (30 °C) -1.82 ± 0.21; (37 °C) -1.51 ± 0.23. For CCUCAGCAAUAUUACGAUUG the same measures were -1.31 ± 0.068 and -0.558 ± 0.084.

As to GAUAAGCAAUAUUACGCGUC, the “self-splicing fitness (ln)” value is, setting by setting: (30 °C) -4.66 ± 0.36; (37 °C) -2.53 ± 0.33. On to GCAGAGCAAUAUUACGUCCC, for which, where the note is “37 °C”, the “self-splicing fitness (ln)” value is -1.04 ± 0.34. UCGCAGCAAUAUUACGUAAC: the “self-splicing fitness (ln)” value was -3.25 ± 0.29 (30 °C) and -1.73 ± 0.23 (37 °C).

For ACAAAGCAAUAUUACGUCCA, the “self-splicing fitness (ln)” value was -1.62 ± 0.097 (30 °C) and -0.403 ± 0.1 (37 °C). In the case of CAAGAGCAAUAUUACGUUGG, the “self-splicing fitness (ln)” value was -2.67 ± 0.13 (30 °C) and -1.78 ± 0.12 (37 °C). For GGACAGCAAUAUUACGCCAA the same measures were -0.506 ± 0.14 and -1.24 ± 0.23. In the same order, the values of CAUCAGCAAUAUUACGGCUA are -2.82 ± 0.2 and -1.44 ± 0.16. In the same order, the values of UCCCAGCAAUAUUACGAAAG are -3.84 ± 0.33 and -3.06 ± 0.17. For the sequence UUGAAGCAAUAUUACGGUUC, the “self-splicing fitness (ln)” value was -3.01 ± 0.2 (30 °C) and -2.08 ± 0.27 (37 °C). Take AAGAAGCAAUAUUACGUGCC: the “self-splicing fitness (ln)” value by setting is: (30 °C) -1.01 ± 0.11; (37 °C) -1.14 ± 0.11.

Take ACUCAGCAAUAUUACGUGUG: the “self-splicing fitness (ln)” value is -1.39 ± 0.061 (30 °C) and -1.3 ± 0.072 (37 °C). In the same order, the values of CCCAAGCAAUAUUACGCUGC are -2.44 ± 0.2 and -2.43 ± 0.41. For UAAGAGCAAUAUUACGAGUA the same measures were -2.94 ± 0.19 and -2.66 ± 0.21.

In the case of CAAAAGCAAUAUUACGUCGC, the “self-splicing fitness (ln)” value is, setting by setting: (30 °C) -4.14 ± 0.28; (37 °C) -2.35 ± 0.25. CCCUAGCAAUAUUACGAACC: under “37 °C”, the “self-splicing fitness (ln)” value is -2.28 ± 0.39.

For AAACAGCAAUAUUACGCCCG, the “self-splicing fitness (ln)” value was -1.35 ± 0.27 (30 °C) and -0.868 ± 0.32 (37 °C). For the sequence AGCCAGCAAUAUUACGCGUU, the “self-splicing fitness (ln)” value is, setting by setting: (30 °C) -2.17 ± 0.12; (37 °C) -0.95 ± 0.12. In the same order, the values of CAGUAGCAAUAUUACGCGCU are -1.56 ± 0.26 and -1.28 ± 0.27. For CGACAGCAAUAUUACGAAAC, the “self-splicing fitness (ln)” value was -3.49 ± 0.27 (30 °C) and -2.39 ± 0.25 (37 °C). For AUCCAGCAAUAUUACGACAU the same measures were 0.00336 ± 0.011 and 0.408 ± 0.032. For CCACAGCAAUAUUACGCGCA the same measures were -3.95 ± 0.3 and -3.06 ± 0.24. As for CAAGAGCAAUAUUACGAUAC, the “self-splicing fitness (ln)” value (30 °C) was -2.8 ± 0.34.

With GCUCAGCAAUAUUACGCAAA, the “self-splicing fitness (ln)” value is -1.15 ± 0.18 (30 °C) and -0.688 ± 0.14 (37 °C). Take CAUGAGCAAUAUUACGUAUA: the “self-splicing fitness (ln)” value (30 °C) was -3.31 ± 0.3 and the “self-splicing fitness (ln)” value (37 °C) was -2.2 ± 0.21. For UACAAGCAAUAUUACGUGGA the same measures were -2.82 ± 0.15 and -2.27 ± 0.11.

Turning to UGAGAGCAAUAUUACGCUCG, for the setting “37 °C”, the “self-splicing fitness (ln)” value was -1.32 ± 0.45. Consider CUGAAGCAAUAUUACGGCCA, for which the “self-splicing fitness (ln)” value runs as follows: (30 °C) -2.42 ± 0.17; (37 °C) -2.69 ± 0.34. For UGUCAGCAAUAUUACGGACC the same measures were -0.173 ± 0.15 and -2.33 ± 0.17. Take CACGAGCAAUAUUACGGGUA: the “self-splicing fitness (ln)” value reads like this: (30 °C) -3.26 ± 0.18; (37 °C) -2.02 ± 0.16. In the same order, the values of CAGUAGCAAUAUUACGAUGC are -3.51 ± 0.28 and -2.67 ± 0.3. In the same order, the values of CAAUAGCAAUAUUACGUAAA are -2.68 ± 0.28 and -2.27 ± 0.4. In the same order, the values of CGUAAGCAAUAUUACGUCUG are -0.285 ± 0.085 and 0.29 ± 0.1.

(Values after the supplement of paper PMC7877785.)
